± gives the uncertainty stated by the source.
Test: amyloid nucleation score (Sup35N fusion, yeast selection) (log enrichment); library NNK2; higher = more nucleation; inactive = no reads after selection
Outline: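 Nucleation score: DiMSum log enrichment of output over input reads, centred on the mode score of non-aggregating sequences. Only sequences with at least 100 input reads were kept. Reads came from Illumina sequencing of plasmid inserts before and after 7 days of growth at 30°C without adenine and uracil, in psi-negative yeast expressing Sup35N fused to peptides of 20 random codons after 24 hours of induction with 100 μM copper sulfate.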

Row | Substance | amyloid nucleation score
1 | GDYSCVHQVRKIDM | 0.162 ± 0.18
2 | GEGQNEVATHLYCQLAILPV | 0.28 ± 0.46
3 | GEKTVLVYMVG | 4.9 ± 0.07
4 | GENTRSINVSSGMQEQSRKT | 0.523 ± 0.38
5 | GEQVWCVGCPYVRWNSLHAG | 8.756 ± 0.037
6 | GESEVLSRRRQFFGRLWVCM | inactive
7 | GETVGFKARFMLMHTSFLLR | 4.902 ± 0.045
8 | GFEWSLSRIDLCSGFGLGAG | 1.24 ± 0.29
9 | GFHQFPVDVVALGWSILRCF | -0.075 ± 0.31
10 | GFLLCVSGVYLGCLLVNSSI | 0.488 ± 0.56
11 | GFLYR | -1.23 ± 0.3
12 | GFMKPSRYLNMVKFNCRLRS | inactive
13 | GFNGRALKLERARDLVCGRM | 0.386 ± 0.29
14 | GFSIVNQDWYS | 0.675 ± 0.35
15 | GFSSHSSFNHTI | 1.37 ± 0.32
16 | GFVYYSVMVFLMLAFPYLRH | -1.59 ± 0.64
17 | GGALGDFGTHEFNLNAPYSQ | inactive
18 | GGDAQACVGHLSHKLCWLSV | 1.65 ± 0.16
19 | GGDAYGRINAASYARIPRLS | 0.902 ± 0.22
20 | GGFDYCFIMYHRNELDSGLG | -0.646 ± 0.23
21 | GGIRYVSVFQIFASCCFSRV | 8.977 ± 0.05

Row | Substance | amyloid nucleation score
22 | GGLAGWSGWNTQDELGCGTT | 0.775 ± 0.4
23 | GGMGHVFITCWGYVYIDYLV | 7.207 ± 0.025
24 | GGNTVSHQK | -0.427 ± 1.1
25 | GGRMHCARRTRMWVHLDAGM | 5.823 ± 0.049
26 | GGRRCGFITIRETNRTLLAL | -0.28 ± 0.55
27 | GGTIYTLL | -1.01 ± 0.36
28 | GGTNYANLMLALWFVVMIST | -0.295 ± 0.44
29 | GGTSAAS | 1.01 ± 0.22
30 | GGWLYANGEYWWSTG | 1.53 ± 0.58
31 | GGYDGVSQMCHFEITWNWMT | 1.37 ± 0.29
32 | GGYDP | inactive
33 | GGYICFQMFFYCVFARNY | 1.27 ± 0.082
34 | GHIQLRTVYGV | 1.2 ± 0.68
35 | GHLRVFGVAKKLSTIMNLAR | -0.274 ± 0.45
36 | GHMLLFTFFR | 5.965 ± 0.035
37 | GHRNTDRSRREDRTKW | 4.82 ± 0.05
38 | GHSSFDQTAFSDSAGSLRML | inactive
39 | GICPWTRLALFCRSGNVYRG | 1.34 ± 0.15
40 | GIFISISPPIGESSGNLQLN | inactive
41 | GIIDV | -0.441 ± 1.1
42 | GILVRRYAWSELMNGED | 0.116 ± 0.49

Row | Substance | amyloid nucleation score
43 | GIRVLRTRYSLELCMRCLLW | 0.126 ± 0.26
44 | GISLGDNIRFYLDCTAAPGA | -0.648 ± 0.42
45 | GITYVVHSTRGTYREPEGPW | 0.469 ± 0.65
46 | GKCRRPMCGGKFGDQGLLRL | 3.27 ± 0.11
47 | GKFVLFRMMFNLVNYRSVLQ | -0.731 ± 0.25
48 | GKGNLQSCYEWKYKKLYVHT | -0.248 ± 0.38
49 | GKIRIENGLRGSLGDIRHNI | -0.623 ± 1
50 | GKLLLFSSWGRA | 0.083 ± 0.44
51 | GKNELYQVS | 0.774 ± 0.41
52 | GKPNGGYSTAK | 0.777 ± 0.4
53 | GKQTP | -0.711 ± 0.45
54 | GKRLSAFWQVVRSWLHIGGM | 5.176 ± 0.035
55 | GKVAAGVIGRYTY | -0.477 ± 0.22
56 | GLDCIVSINRVQLTSAGLIE | 0.382 ± 0.47
57 | GLDITIGEA | -0.522 ± 0.63
58 | GLEFFLGYGYIAARHWVSGS | 1.59 ± 0.13
59 | GLIGSERNSRVWRNYQMSCS | 2.99 ± 0.11
60 | GLIYIRDFSFREKGGCYQGL | -1.29 ± 1.1
61 | GLPRMRSRYTYRGKYVCMCM | 1.12 ± 0.36
62 | GLRSLVHEARCRYKTSTSVK | -0.939 ± 0.55
63 | GLSCVFRMRIE | 6.266 ± 0.05
